The target in assay [1] is human MET, cell-surface expressed (human, UniProt P08581 25-1390). Kind of assay: cell-based or functional assay.
Another assay has as its target T1, hMET Q328H/R331K/S336N (human, UniProt P08581 25-1390).
T1 construct: whole, on cells; also called human to canine
Kind of assay: flow cytometry on transfected CHO cells (ND = not detectable). How it is done: (§1) This surface-exposed cluster in the human MET (hMET) protein was replaced with corresponding amino acids from canine or murine MET. hMET mutants were then transfected into CHO cells and antibody binding affinity was measured by flow cytometry.
Background: A flow cytometer gives signals particle by particle.

A further assay addresses T2, hMET R331K/S336N (human, UniProt P08581 25-1390).
T2 construct: whole, on cells; also called human to canine
The assay is described as above. How it is done: as §1

The next assay concerns the target T3, hMET R331K/L337P (human, UniProt P08581 25-1390).
T3 construct: whole, on cells; also called human to murine
Described as above. How it is done:
as §1

Assay [2] has as its target T4, hMET Q328N/R331K/L337P/N338S (human, UniProt P08581 25-1390).
T4 construct: whole, on cells; also called human to murine
Described as above. How it is done:
as §1

The next assay deals with T5, mouse MET on MS1 cells (mouse, UniProt P16056 25-1379).
T5 construct: whole, on cells; also called Murine (MS1)
T5 sequence (P16056 25-1379): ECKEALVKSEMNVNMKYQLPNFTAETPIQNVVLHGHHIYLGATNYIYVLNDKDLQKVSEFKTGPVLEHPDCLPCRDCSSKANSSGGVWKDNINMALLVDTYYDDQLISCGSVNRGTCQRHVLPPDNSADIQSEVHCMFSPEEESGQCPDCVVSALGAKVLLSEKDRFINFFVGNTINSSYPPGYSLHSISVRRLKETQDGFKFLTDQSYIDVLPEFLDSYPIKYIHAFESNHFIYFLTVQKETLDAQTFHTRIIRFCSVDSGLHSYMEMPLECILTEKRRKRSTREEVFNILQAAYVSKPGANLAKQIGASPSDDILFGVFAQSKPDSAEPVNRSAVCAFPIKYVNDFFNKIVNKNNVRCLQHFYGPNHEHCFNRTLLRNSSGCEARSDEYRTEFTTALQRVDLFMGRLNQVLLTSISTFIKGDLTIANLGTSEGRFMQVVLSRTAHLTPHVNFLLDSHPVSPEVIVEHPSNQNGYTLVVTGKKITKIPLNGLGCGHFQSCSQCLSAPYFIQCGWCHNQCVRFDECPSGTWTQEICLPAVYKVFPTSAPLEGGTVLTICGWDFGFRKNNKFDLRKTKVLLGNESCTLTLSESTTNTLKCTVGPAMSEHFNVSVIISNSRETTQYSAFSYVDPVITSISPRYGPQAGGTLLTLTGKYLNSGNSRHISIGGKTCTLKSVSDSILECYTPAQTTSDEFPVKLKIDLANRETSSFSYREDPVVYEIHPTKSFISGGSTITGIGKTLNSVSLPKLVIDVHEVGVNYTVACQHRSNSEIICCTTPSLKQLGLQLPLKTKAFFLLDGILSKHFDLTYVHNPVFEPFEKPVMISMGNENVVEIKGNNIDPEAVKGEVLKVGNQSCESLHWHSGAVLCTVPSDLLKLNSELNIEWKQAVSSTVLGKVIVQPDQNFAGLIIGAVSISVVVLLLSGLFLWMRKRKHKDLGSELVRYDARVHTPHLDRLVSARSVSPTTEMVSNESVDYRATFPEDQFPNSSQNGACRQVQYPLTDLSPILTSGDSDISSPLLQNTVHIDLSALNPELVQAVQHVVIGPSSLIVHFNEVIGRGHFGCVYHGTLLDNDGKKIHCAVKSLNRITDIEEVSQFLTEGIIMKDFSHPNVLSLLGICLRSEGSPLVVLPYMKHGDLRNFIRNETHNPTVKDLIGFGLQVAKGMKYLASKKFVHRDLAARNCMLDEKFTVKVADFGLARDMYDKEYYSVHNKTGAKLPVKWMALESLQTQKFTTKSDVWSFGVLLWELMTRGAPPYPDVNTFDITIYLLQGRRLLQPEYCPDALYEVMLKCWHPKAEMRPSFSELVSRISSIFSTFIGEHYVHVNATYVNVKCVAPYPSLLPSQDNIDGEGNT
Kind of assay: FACS, serial dilutions of Alexa647-labelled antibody on MS1 cells. How it is done: (§2) To measure antibody binding affinities against cell surface receptor, antibodies were labeled with the Alexa647 antibody labeling kit and purified per manufacturer's instruction (Invitrogen). A549 (human), 4MBr5 (monkey), MDCK (canine), and MS1 (murine) cells were resuspended in pre-chilled FACS buffer, incubated on ice for 1 hr and distributed to 96-well plates at 10⁵ cell/well. Serial dilutions of labeled antibodies were added to each well and incubated on ice for 4 hrs to allow antibody binding to reach equilibrium. Mean fluorescence intensity was analyzed using a FACS reader (ACCURI™-C6; BD Biosciences), and apparent binding affinities were determined using […] PRISM® software.

Another assay deals with T6, dog MET on MDCK cells (dog, UniProt Q75ZY9 25-1382).
T6 construct: whole, on cells; also called Canine (MDCK)
T6 sequence (Q75ZY9 25-1382): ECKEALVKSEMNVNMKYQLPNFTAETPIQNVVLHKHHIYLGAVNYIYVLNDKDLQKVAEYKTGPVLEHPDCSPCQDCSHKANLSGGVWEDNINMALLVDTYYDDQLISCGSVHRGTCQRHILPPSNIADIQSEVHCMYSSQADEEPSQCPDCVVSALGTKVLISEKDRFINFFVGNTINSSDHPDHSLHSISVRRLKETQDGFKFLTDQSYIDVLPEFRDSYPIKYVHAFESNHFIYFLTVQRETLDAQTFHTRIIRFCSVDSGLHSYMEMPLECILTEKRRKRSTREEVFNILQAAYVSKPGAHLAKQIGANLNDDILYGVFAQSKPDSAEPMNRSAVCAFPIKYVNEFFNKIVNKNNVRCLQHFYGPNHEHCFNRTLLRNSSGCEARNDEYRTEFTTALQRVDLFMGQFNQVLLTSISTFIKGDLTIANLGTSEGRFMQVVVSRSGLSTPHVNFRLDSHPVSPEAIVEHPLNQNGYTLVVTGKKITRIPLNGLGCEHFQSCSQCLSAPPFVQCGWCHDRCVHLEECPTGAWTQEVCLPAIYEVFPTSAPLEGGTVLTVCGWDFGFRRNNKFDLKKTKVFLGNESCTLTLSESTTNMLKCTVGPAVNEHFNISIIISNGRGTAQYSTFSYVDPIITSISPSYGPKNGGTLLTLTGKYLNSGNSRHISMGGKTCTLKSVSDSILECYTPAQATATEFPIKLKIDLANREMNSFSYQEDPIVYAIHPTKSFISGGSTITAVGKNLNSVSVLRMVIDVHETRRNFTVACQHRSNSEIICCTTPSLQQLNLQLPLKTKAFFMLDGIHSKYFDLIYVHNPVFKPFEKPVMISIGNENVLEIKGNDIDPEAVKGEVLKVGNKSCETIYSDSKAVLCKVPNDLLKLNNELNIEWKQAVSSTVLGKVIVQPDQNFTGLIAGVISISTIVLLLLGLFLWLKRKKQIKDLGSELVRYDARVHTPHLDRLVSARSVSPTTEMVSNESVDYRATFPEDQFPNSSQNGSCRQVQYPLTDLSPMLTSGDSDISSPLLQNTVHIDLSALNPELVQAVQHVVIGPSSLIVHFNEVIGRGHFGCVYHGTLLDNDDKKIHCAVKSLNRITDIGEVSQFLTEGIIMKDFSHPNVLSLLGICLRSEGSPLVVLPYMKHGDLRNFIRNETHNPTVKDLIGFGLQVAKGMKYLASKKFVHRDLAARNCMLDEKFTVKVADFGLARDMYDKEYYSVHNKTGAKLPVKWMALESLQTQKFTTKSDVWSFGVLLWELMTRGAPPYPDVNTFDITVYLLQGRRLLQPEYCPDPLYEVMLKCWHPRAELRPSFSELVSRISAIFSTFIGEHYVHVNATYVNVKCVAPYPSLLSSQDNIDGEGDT
Kind of assay: FACS, serial dilutions of Alexa647-labelled antibody on MDCK cells. How it is done:
as §2

For the next assay, the target named is T7, murine MET-ECD (murine, UniProt P16056 25-931).
T7 construct: extracellular domain; also called mouse cMET ECD
T7 sequence (P16056 25-931): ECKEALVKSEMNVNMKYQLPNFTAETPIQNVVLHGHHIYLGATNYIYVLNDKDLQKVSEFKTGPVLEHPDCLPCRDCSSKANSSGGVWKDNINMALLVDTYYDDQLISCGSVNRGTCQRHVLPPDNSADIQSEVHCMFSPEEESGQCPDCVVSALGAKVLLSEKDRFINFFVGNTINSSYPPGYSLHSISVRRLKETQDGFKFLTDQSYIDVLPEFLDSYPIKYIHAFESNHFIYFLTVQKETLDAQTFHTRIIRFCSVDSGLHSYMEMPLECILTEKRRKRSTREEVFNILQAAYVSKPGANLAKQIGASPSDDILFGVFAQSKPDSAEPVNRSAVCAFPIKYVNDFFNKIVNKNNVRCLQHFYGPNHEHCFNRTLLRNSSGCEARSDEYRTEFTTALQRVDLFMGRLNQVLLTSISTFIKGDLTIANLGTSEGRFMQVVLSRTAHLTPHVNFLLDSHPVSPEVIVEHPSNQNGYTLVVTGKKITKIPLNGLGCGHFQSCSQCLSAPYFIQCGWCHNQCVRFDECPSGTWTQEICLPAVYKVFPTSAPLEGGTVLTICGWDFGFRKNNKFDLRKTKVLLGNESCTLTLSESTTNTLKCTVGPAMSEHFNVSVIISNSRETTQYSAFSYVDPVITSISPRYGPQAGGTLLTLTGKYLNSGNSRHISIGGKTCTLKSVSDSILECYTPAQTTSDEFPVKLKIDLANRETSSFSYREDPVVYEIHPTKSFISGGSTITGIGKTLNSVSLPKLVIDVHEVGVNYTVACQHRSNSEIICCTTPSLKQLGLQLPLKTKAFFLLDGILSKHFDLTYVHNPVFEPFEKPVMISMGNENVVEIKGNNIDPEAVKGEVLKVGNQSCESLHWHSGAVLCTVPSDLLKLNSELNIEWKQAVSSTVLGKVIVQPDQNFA
Kind of assay: ELISA on coated murine MET-ECD. How it is done:
To measure antibody binding by ELISA, 10 μg of human, murine or chimeric MET-ECD was coated onto 96-well plates (Costar). Serial dilutions of antibodies were added to the plates and incubated at room temperature for 1 hr prior to the addition of HRP-conjugated secondary antibody. Luminescence was measured with BioTek SYNERGY™ HT plate reader, and binding EC₅₀ values were determined using […] PRISM® software.
For orientation: ELISA stands for enzyme-linked immunosorbent assay.

Sequence of human MET, cell-surface expressed (P08581 25-1390): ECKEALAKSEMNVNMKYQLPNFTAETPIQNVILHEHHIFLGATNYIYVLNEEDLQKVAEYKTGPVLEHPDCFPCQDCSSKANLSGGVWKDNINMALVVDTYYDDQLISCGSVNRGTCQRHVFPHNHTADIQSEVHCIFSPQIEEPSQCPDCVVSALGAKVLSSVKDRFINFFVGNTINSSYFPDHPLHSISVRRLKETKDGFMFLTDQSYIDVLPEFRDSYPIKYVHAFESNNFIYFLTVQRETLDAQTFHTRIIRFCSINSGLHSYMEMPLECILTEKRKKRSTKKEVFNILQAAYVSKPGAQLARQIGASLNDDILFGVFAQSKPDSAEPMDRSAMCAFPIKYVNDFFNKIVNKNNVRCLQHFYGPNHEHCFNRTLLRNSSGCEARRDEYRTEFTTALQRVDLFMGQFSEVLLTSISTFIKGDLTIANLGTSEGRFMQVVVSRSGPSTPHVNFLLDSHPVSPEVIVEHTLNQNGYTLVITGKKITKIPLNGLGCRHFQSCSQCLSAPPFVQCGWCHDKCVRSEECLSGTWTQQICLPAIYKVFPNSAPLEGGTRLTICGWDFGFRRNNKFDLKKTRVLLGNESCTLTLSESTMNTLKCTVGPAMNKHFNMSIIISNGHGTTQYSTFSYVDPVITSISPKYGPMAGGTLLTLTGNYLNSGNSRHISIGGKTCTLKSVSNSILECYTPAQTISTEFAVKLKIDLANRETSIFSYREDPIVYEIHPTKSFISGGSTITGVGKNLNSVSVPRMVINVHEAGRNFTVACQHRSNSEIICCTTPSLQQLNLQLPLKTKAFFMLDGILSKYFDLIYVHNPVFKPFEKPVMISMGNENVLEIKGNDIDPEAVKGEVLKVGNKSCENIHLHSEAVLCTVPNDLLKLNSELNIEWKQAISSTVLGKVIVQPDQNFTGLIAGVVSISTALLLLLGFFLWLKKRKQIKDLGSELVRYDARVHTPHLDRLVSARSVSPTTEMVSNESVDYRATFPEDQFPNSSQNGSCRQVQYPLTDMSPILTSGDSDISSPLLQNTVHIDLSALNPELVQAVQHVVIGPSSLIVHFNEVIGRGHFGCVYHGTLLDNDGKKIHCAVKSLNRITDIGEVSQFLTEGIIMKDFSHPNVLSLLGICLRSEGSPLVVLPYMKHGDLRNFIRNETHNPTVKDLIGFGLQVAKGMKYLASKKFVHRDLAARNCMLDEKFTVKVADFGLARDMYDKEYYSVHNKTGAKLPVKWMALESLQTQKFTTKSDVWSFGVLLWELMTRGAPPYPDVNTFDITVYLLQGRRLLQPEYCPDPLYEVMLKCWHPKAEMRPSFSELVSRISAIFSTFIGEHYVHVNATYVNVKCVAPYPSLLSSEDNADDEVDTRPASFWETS

B1: Ab238C (antibody, human IgG1, V domains shown)
VH: QVTLKESGPGILQPSQTLSLTCTFSGFSLSTYGMGVAWIRQPSGKDLEWLANIWWDDVNYSNPSLKNRLTISKDTSNNQVFLQITNVDTAETATYYCARIGTSHIVDAWGQGASVTVSA
VL: DIRMTQSPASLSASLGETVNIECLASEDIYSDLAWYQQKPGKSPQLLIYNANTLQNGVPSVFSGSGSGTQYSLKINNLHSEDVATYFCQQYNNYPPTFGGGTKLEIKR
For the molecule B1, in assay [1], the “maximal percent induction of MET degradation in SNU-5 cells” value (shortened to “maximal percent induction”) was 39% and the “percent inhibition of MET phosphorylation in SNU-5 cells” value (“percent inhibition” for short) was determined as 19%.

B2: Ab238C-IgG2 (antibody, V domains shown)
VH: QVTLKESGPGILQPSQTLSLTCTFSGFSLSTYGMGVAWIRQPSGKDLEWLANIWWDDVNYSNPSLKNRLTISKDTSNNQVFLQITNVDTAETATYYCARIGTSHIVDAWGQGASVTVSA
VL: DIRMTQSPASLSASLGETVNIECLASEDIYSDLAWYQQKPGKSPQLLIYNANTLQNGVPSVFSGSGSGTQYSLKINNLHSEDVATYFCQQYNNYPPTFGGGTKLEIKR
Turning to B2, in assay [1], the “maximal percent induction” value was found to be 35% and the “percent inhibition” value is 24%.

B3: Ab238 (antibody, rat IgG2a, V domains shown)
VH: QVTLKESGPGILQPSQTLSLTCTFSGFSLSTYGMGVAWIRQPSGKDLEWLANIWWDDVNYSNPSLKNRLTISKDTSNNQVFLQITNVDTAETATYYCARIGTSHIVDAWGQGASVTVSA
VL: DIRMTQSPASLSASLGETVNIECLASEDIYSDLAWYQQKPGKSPQLLIYNANTLQNGVPSVFSGSGSGTQYSLKINNLHSEDVATYFCQQYNNYPPTFGGGTKLEIKR
notes: Rat IgG2a, kappa
Turning to B3, the binding result (with hMET Q328H/R331K/S336N; in the assay with hMET R331K/S336N; in the assay with hMET R331K/L337P; in assay [2]; with mouse MET on MS1 cells; in the assay with dog MET on MDCK cells) was “no binding” throughout. For the same molecule, the binding result with murine MET-ECD was “no binding”.

B4: Ab235C (antibody, human IgG1, V domains shown)
VH: QVQLQQSGAELMKPGASVKISCKATGYTFSNYWIEWVKQRPGHGLEWIGEILPGSDYTKYNEKFKGKATFTADTSSNTAYMQLSSLTSEDSAVYYCARPSTIPPDCWGQGTTLTVSA
VL: QIVLTQSPAIMSTSPGEKVTMTCSASSSVNYMFWYQQKAGSSPRLLIYDTFNLASGVPVRFSGSGSGTSYSLTISRMEAEDAATYYCQQWSIYPYTFGGGTKLEIKR
As to B4, in assay [1], the “maximal percent induction” value was 6% and the “percent inhibition” value came to 10%.

B5: Ab235 (antibody, mouse IgG1, V domains shown)
VH: QVQLQQSGAELMKPGASVKISCKATGYTFSNYWIEWVKQRPGHGLEWIGEILPGSDYTKYNEKFKGKATFTADTSSNTAYMQLSSLTSEDSAVYYCARPSTIPPDCWGQGTTLTVSA
VL: QIVLTQSPAIMSTSPGEKVTMTCSASSSVNYMFWYQQKAGSSPRLLIYDTFNLASGVPVRFSGSGSGTSYSLTISRMEAEDAATYYCQQWSIYPYTFGGGTKLEIKR
notes: Mouse IgG1, kappa
For B5, the binding result in the assay with mouse MET on MS1 cells, with dog MET on MDCK cells and with murine MET-ECD was “no binding” each time.

B6: Ab236C (antibody, human IgG1, V domains shown)
VH: QAQLQQSGAELMKPGASVKISCKATGYIFSSYWIEWVKQRPGHGLEWIGEILPGSDFIKYSEKFKGKATFTADTSSNTAYMQLSNLTSEDSAVYYCARPSTVPPDCWGQGTTLTVSA
VL: QIVLTQSPAIMSASPGEKVTMTCSASSSVSYMFWYQQKPGSSPRLLIYDTSDLASGVPVRFSGSGSGTSYSLTISRMEAEDAATYYCQQWSNYPYTFGGGTKLEIKR
With B6, in assay [1], the “maximal percent induction” value turned out to be 19% and the “percent inhibition” value is 17%.

B7: Ab236 (antibody, mouse IgG1, V domains shown)
VH: QAQLQQSGAELMKPGASVKISCKATGYIFSSYWIEWVKQRPGHGLEWIGEILPGSDFIKYSEKFKGKATFTADTSSNTAYMQLSNLTSEDSAVYYCARPSTVPPDCWGQGTTLTVSA
VL: QIVLTQSPAIMSASPGEKVTMTCSASSSVSYMFWYQQKPGSSPRLLIYDTSDLASGVPVRFSGSGSGTSYSLTISRMEAEDAATYYCQQWSNYPYTFGGGTKLEIKR
notes: Mouse IgG1, kappa
Consider B7, for which the binding result with mouse MET on MS1 cells, in the assay with dog MET on MDCK cells and in the assay with murine MET-ECD was “no binding” each time.

B8: Ab235C-IgG2 (antibody, V domains shown)
VH: QVQLQQSGAELMKPGASVKISCKATGYTFSNYWIEWVKQRPGHGLEWIGEILPGSDYTKYNEKFKGKATFTADTSSNTAYMQLSSLTSEDSAVYYCARPSTIPPDCWGQGTTLTVSA
VL: QIVLTQSPAIMSTSPGEKVTMTCSASSSVNYMFWYQQKAGSSPRLLIYDTFNLASGVPVRFSGSGSGTSYSLTISRMEAEDAATYYCQQWSIYPYTFGGGTKLEIKR
As for B8, in assay [1], the “maximal percent induction” value was found to be 64% and the “percent inhibition” value amounted to 64%.

B9: Ab236C-IgG2 (antibody, V domains shown)
VH: QAQLQQSGAELMKPGASVKISCKATGYIFSSYWIEWVKQRPGHGLEWIGEILPGSDFIKYSEKFKGKATFTADTSSNTAYMQLSNLTSEDSAVYYCARPSTVPPDCWGQGTTLTVSA
VL: QIVLTQSPAIMSASPGEKVTMTCSASSSVSYMFWYQQKPGSSPRLLIYDTSDLASGVPVRFSGSGSGTSYSLTISRMEAEDAATYYCQQWSNYPYTFGGGTKLEIKR
For the molecule B9, in assay [1], the “maximal percent induction” value was 69% and the “percent inhibition” value turned out to be 75%.

B10: Ab237C-IgG2 (antibody, V domains shown)
VH: EVQLVESGGGLVQPGRSLKLSCAASGFTFSDSYMAWVRQAPTKGLEWVASISSDGGGTYYRDSVKGRFSISRDNAKSSLYLQMDSLRSEDTATYYCTTEGIYTTDYYPYCFNYWGHGVMVTVSA
VL: DIQMTQSPGSLSASLGETVTIECLASADIHSNLAWYQQKPGNSPQLLIYYGNNLNDGVPSRFSGSGSGTQYSLKINSLQSEDVSIYFCQQSYDSPPTFGAGTKLEIKR
For B10, in assay [1], the “maximal percent induction” value amounted to 81% and the “percent inhibition” value stood at 72%.

B11: Ab237 (antibody, rat IgG2a, V domains shown)
VH: EVQLVESGGGLVQPGRSLKLSCAASGFTFSDSYMAWVRQAPTKGLEWVASISSDGGGTYYRDSVKGRFSISRDNAKSSLYLQMDSLRSEDTATYYCTTEGIYTTDYYPYCFNYWGHGVMVTVSA
VL: DIQMTQSPGSLSASLGETVTIECLASADIHSNLAWYQQKPGNSPQLLIYYGNNLNDGVPSRFSGSGSGTQYSLKINSLQSEDVSIYFCQQSYDSPPTFGAGTKLEIKR
notes: Rat IgG2a, kappa
As to B11, the binding result (with hMET Q328H/R331K/S336N; with hMET R331K/S336N; with hMET R331K/L337P; in assay [2]; with mouse MET on MS1 cells; with dog MET on MDCK cells) was “no binding” in each case. The binding result in the assay with murine MET-ECD is given as “no binding”.

B12: Ab239C (antibody, human IgG1, V domains shown)
VH: EVQLVESGGGLVQPGRSLKLSCAASGFSFTDCYMAWVRQAPTKGLEWVASISSDGGGTYYRDSVKGRFTISRDNARSSLYLEMDSLRSEDTATYYCTTERYYDGTYYGYWYFDFWGPGTMVTVSA
VL: GQFTLTQPKSVSGSLRSTITIPCVRSSGDIGDRYVSWYQQRLGRPPLNVIYAADQRPSEVSDRFSGSIDSSSNSASLTITDLQMDDEADYFCQSYDSNIDIVFGGGTKLEIKR
For B12, in assay [1], the “maximal percent induction” value amounted to 36% and the “percent inhibition” value stood at 33%.

B13: Ab239 (antibody, rat IgG2a, V domains shown)
VH: EVQLVESGGGLVQPGRSLKLSCAASGFSFTDCYMAWVRQAPTKGLEWVASISSDGGGTYYRDSVKGRFTISRDNARSSLYLEMDSLRSEDTATYYCTTERYYDGTYYGYWYFDFWGPGTMVTVSA
VL: GQFTLTQPKSVSGSLRSTITIPCVRSSGDIGDRYVSWYQQRLGRPPLNVIYAADQRPSEVSDRFSGSIDSSSNSASLTITDLQMDDEADYFCQSYDSNIDIVFGGGTKLEIKR
notes: Rat IgG2a, lambda
In the case of B13, the binding result with mouse MET on MS1 cells, in the assay with dog MET on MDCK cells and with murine MET-ECD was “no binding” in each case.

B14: Ab239C-IgG2 (antibody, V domains shown)
VH: EVQLVESGGGLVQPGRSLKLSCAASGFSFTDCYMAWVRQAPTKGLEWVASISSDGGGTYYRDSVKGRFTISRDNARSSLYLEMDSLRSEDTATYYCTTERYYDGTYYGYWYFDFWGPGTMVTVSA
VL: GQFTLTQPKSVSGSLRSTITIPCVRSSGDIGDRYVSWYQQRLGRPPLNVIYAADQRPSEVSDRFSGSIDSSSNSASLTITDLQMDDEADYFCQSYDSNIDIVFGGGTKLEIKR
On to B14, for which, in assay [1], the “maximal percent induction” value came out at 75% and the “percent inhibition” value turned out to be 75%.

For the origin of these results see US20180057595A1 (CELLDEX THERAPEUTICS, published 2018).
